Source: the DeepSol protein solubility set

Assay: soluble on expression in E. coli; label from the status in PepcDB or PDB records

Sequence: MGSDKIHHHHHHMNKTMWSIGFQKHLPINEEASLFRFETAVPQPEGRDLLVKVDAVSVNPIDVAVRKNGTETLDEPKVIGWDAVGTVIAKGASAGYFEIGDRVFYAGSFKRAGSDSEYQLVDERVVGHAPEKLSNAEAAAMPLTSLTAWEALFEQLEIDREDVQGNADKSILIINGAGGVGSIATQLAQKAGLHVIASASRPETIEWCLKHGADETVNHRNNLIDEVRNLGHQYVDYILELNNIDAHWDEMVELIKPNGRMTSITQNHEPVDLKALKHKRVTFAWEWMYTKSYYETPDMETQHVYLDEIARLLDAGELISTLTKQLSPINVENLKQAHKLVEGNHMMGKVVVENLED
- soluble on expression in E. coli: not soluble

Sequence: GPLGSKAPTVFSQNEASLLNQLKNIANREDYVVTWWDYGYPVRYYSDVKTLVDGGKHLGKDNFFPSFALSKDEQAAANMARLSVEYTEKSFYAPQNDILKSDILQAMMKDYNQSNVDLFLASLSKPDFKIDTPKTRDIYLYMPARMSLIFSTVASFSFINLDTGVLDKPFTFSTAYPLDVKNGEIYLSNGVVLSDDFRSFKIGDNVVSVNSIVEINSIKQGEYKITPIDDKAQFYIFYLKDSAIPYAQFILMDKTMFNSAYVQMFFLGNYDKNLFDLVINSRDAKVFKLKI
- soluble on expression in E. coli: soluble

Sequence: MKQFKRGIERDGTGFVVLMAEEAEDMWHIYNLIRIGDIIKASTIRKVVSETSTGTTSSQRVHTMLTVSVESIDFDPGAQELHLKGRNIEENDIVKLGAYHTIDLEPNRKFTLQKTEWDSIDLERLNLALDPAQAADVAAVVLHEGLANVCLITPAMTLTRAKIDMTIPRKRKGFTSQHEKGLEKFYEAVSTAFMRHVNLQVVKCVIVASRGFVKDAFMQHLIAHADANGKKFTTEQRAKFMLTHSSSGFKHALKEVLETPQVALRLADTKAQGEVKALNQFLELMSTEPDRAFYGFNHVNRANQELAIETLLVADSLFRAQDIETRRKYVRLVESVREQNGKVHIFSSMHVSGEQLAQLTGCAAILRFPMPDLDDEPMDEN
- soluble on expression in E. coli: not soluble

Sequence: MGSDKIHHHHHHMNIAIIGSGLTGSLAAISLAKAGCRVDLYERLSDEELVNRDRTYAITHSSRKILEKLGIWSNLSRDLVPFQFLNVIDYELNKKFVFLTNDLPIPDQKYSAVGWIAEHKFIMLSILSVISNLENINKIPTSVIPNTNNYDLIVAADGSSSNTKKKLNTPSFHFKYDQMCITAKVLLRGVKSNEAFEILNSEGPFAVLPLGGDLFQVICSQSILKGTYNMNLSKSLFLDYLSTILPYGIEPDTIIDSPESFPIDFCLNYLFFSGKYIYLGETAHKIHPVGGQGLNLCWRDVDCLSKLLSIPLLKNNHSLIPLIYSISRSFDVLSISILTDSLVRYSRSNISIFYLPRLLVFFILKKSSLFRKYILNLMTNGF
- soluble on expression in E. coli: not soluble

Sequence: MSTSSNKSDAIKQTRAFSILLMGVDTGSSERASKWEGNSDSMILVTVNPKTKKTTMTSLERDTLTTLSGPKNNEMNGVEAKLNAAYAAGGAQMAIMTVQDLLNITIDNYVQINMQGLIDLVNAVGGITVTNEFDFPISIAENEPEYQATVAPGTHKINGEQALVYARMRYDDPEGDYGRQKRQREVIQKVLKKILALDSISSYRKILSAVSSNMQTNIEISSRTIPSLLGYRDALRTIKTYQLKGEDATLSDGGSYQIVTSNHLLEIQNRIRTELGLHKVNQLKTNATVYENLYGSTKSQTVNNNYDSSGQAPSYSDSHSSYANYSSGVDTGQSASTDQDSTASSHRPATPSSSSDALAADESSSSGSGSLVPPANINPQTLEHHHHHH
- soluble on expression in E. coli: soluble

Sequence: MSLSTCPAACHCPLEAPKCAPGVGLVRDGCGCCKVCAKQLNEDCSKTQPCDHTKGLECNFGASSTALKGICRAQSEGRPCEYNSRIYQNGESFQPNCKHQCTCIDGAVGCIPLCPQELSLPNLGCPNPRLVKVTGQCCEEWVCDEDSIKDPMEEGHHHHHH
- soluble on expression in E. coli: not soluble

Sequence: MGSDKIHHHHHHWQVTGSKTTLDGVEAARMSGIESYPLRLEPELVCEADDLDALLDVDALVITLPARRSGPGEDFYLQAMQELVDSALAYRIPRIIFTSSTSVYGDAQGVVKENTPRNPVTASGRTLKELEDWLHNLPGTSVDILRLAGLVGPGRHPGRFFAGKTAPDGQHGVNLVHLEDVVGAITLLLQAPKGGHIYNICAPAHPARNVFYPQMTRLLGMAPPHFRDAPDNGKGKIIDGSRICNELGFEYQYPDPLVMPME
- soluble on expression in E. coli: not soluble
